# Data taken from the DeepSol protein solubility set.
# Assay: soluble on expression in E. coli; label from the status in PepcDB or PDB records
row,Sequence,soluble on expression in E. coli
1,MGSDKIHHHHHHMNIIGFSKALFSTWIYYSPERILFDAGEGVSTTLGSKVYAFKYVFLTHGHVDHIAGLWGVVNIRNNGMGDREKPLDVFYPEGNRAVEEYTEFIKRANPDLRFSFNVHPLKEGERVFLRNAGGFKRYVQPFRTKHVSSEVSFGYHIFEVRRKLKKEFQGLDSKEISRLVKEKGRDFVTEEYHKKVLTISGDSLALDPEEIRGTELLIHECTFLDARDRRYKNHAAIDEVMESVKAAGVKKVILYHISTRYIRQLKSVIKKYREEMPDVEILYMDPRKVFEM,not soluble
2,MQKIDLGNNESLVCGVFPNQDGTFTAMTYTKSKTFKTETGARRWLEKHTVS,soluble
3,MRMLRRLRRATVAAAVWLATVCLVASCANADPLGSATGSVKSIVVGSGDFPESQVIAEIYAQVLQANGFDVGRRLGIGSRETYILALKDHSIDLVPEYIGNLLLYFQPDATVTMLDAVELELYKRLPGDLSILTPSPASDTDTVTVTAATAARWNLKTIADLAPHSADVKFAAPSAFQTRPSGLPGLRHKYSLDIAPGNFVTINDGGGAVTVRALVEGTATAANLFSTSAAIPQNHLVVLEDPEHNFLAGNIVPLVNSRKKSDHLKDVLDAVSAKLTTAGLAELNAAVSGNSGVDPDQAARKWVRDNGFDHPVRQ,soluble
4,MEKVYGLIGFPVEHSLSPLMHNDAFARLGIPARYHLFSVEPGQVGAAIAGVRALGIAGVNVTIPHKLAVIPFLDEVDEHARRIGAVNTIINNDGRLVGYNTDGLGYVQALEEEMNITLDGKRILVIGAGGGARGIYFSLLSTAAERIDMANRTVEKAERLVREGDERRSAYFSLAEAETRLAEYDIIINTTSVGMHPRVEVQPLSLERLRPGVIVSDIIYNPLETKWLKEAKARGARVQNGVGMLVYQGALAFEKWTGQWPDVNRMKQLVIEALRR,soluble
5,MTPNGHHFRTVIYNAAAVGNLQRIKVFTINSRNDRQWIIDCFNSDQDGRYPLVIAARNGHANVVEYLLEIGADPSVRGVVEFDNENIQGTPPLWAASAAGHIEIVKLLIEKANADVNQATNTRSTPLRGACYDGHLDIVKYLLEKGADPHIPNRHGHTCLMIASYRNKVGIVEELLKTGIDVNKKTERGNTALHDAAESGNVEVVKILLKHGSVLMKDIQGVDPLMGAALSGFLDVLNVLADQMPSGIHKRDALKLLGSTLLDKKMDAMSAMNCWKQSMEVPLHADDLRLVREMETFFEPQEVYEYQREAQNIAQVELLDGNIEAQRMQALVIRERILGGAHTDVHYYLRFRGAVYCDMGQMNRCYDLWKHALELQQKHFAPLYYGTITTLQSFHETFSMSLNDFVNNHHANRNLRVRSSWVKYVFNGVCLELERAAAWTGAPLLEDTECCGKERCQHATEESEYKKLVYVAVHLVNVLERLSLPSAHIDDSDEEKEPKADVRRLMIVCHELHIPLLHHTLEERIPDSNSAELGLPKAAVLEQLLELDLDVNATDKNNDTPMHILLRAREFRKSLVRALLVRGTWLFARNRHGDVVLNVMKRMKALNHANFDDLPLGRHITLAGLVANAMRVKYPKKFVGVEEQMPLELRRFYLAH,not soluble
6,LALVATGNDTTTKPDLYYLKNSEAINSLALLPPPPAVGSIAFLNDQAMYEQGRLLRNTERGKLAAEDANLSSGGVANAFSGAFGSPITEKDAPALHKLLTNMIEDAGDLATRSAKDHYMRIRPFAFYGVSTCNTTEQDKLSKNGSYPSGHTSIGWATALVLAEINPQRQNEILKRGYELGQSRVICGYHWQSDVDAARVVGSAVVATLHTNPAFQQQLQKAKAEFAQHQKK,soluble
7,MKFIIEALKRVRERRPLVHNITNFVVMNTTANALLALGASPVMAHAEEELEEMIRLADAVVINIGTLDSGWRRSMVKATEIANELGKPIVLDPVGAGATKFRTRVSLEILSRGVDVLKGNFGEISALLGEEGKTRGVDSLEYGEEEAKKLTMNAAREFNTTVAVTGAVDYVSDGRRTFAVYNGHELLGRVTGTGCMVAALTGAFVAVTEPLKATTSALVTFGIAAEKAYEEAKYPGSFHVKLYDWLYRINENVIRTYAKVREVEL,soluble
8,MYQTKITGNRLYHTVSKGYGDSVTLFGKTDQGETPMSLLVIALSSCVTMCVQGFYHRQFQQDTLAVSVEASYEEEVFELLVRIDDVLDDKKKADLLAYIGTYCRVKQLLKPEVTVTITLEGLSHV,not soluble
9,MSDFVPETEENEEESQKIDEIHEIPAQAIIIDQSFSRRFLNNKWYGKYGEDGDLLEHIDEDWEPVGLDEVEFLSQLWFEQEDQEKKAHRHYDWDEEKKEWVPKAKQEEVNEDFIAEYQANYGVQYDDIYKKMDEELQEKAAKAQKEDEEKKEKKRKKKVGLGAGEDAKEGWLDLGDKVHAVYVSNLPEDITDEEFQKFMSKCGVIQPDIRTNKPKCKLYREENGKLKGDGRCCYIKKESVELACNILDGANLNGREVKVEEARFEMKGDFDPARKRRKLTAAQKKRYMEQQNKIFEWTPDKPRNYRPKSDCTVIVKNLFTQEMMNKNAALMLDLKEEMTQSCQKYGIVKKVVVYANHPDGVVSVTFPTTEESDMAVKYLHGRVVDGRKLTAELWDGRTKFKVEETEEDEEKRRKEYEKYIEGGSSETKEESDDDDDDEAEDN,not soluble
10,MSLKVAVIGAGAMGGLYGAYLSRKNDVYMIDINEKVVKSINENGLIIYERENNKKEKFLVSAFTDSSNLGPMDLVIIFVKNLYTTSALKNNLNLFSDSTLVITLQNGAGNDRDLEKFIKKENILIGTTEHSCSILETGEVSHNQEGITNIGMLVYNDNIIKRISDEFKACSLKTEVYQNIQEIIWSKLFINMALNSTTAILNCKVGYLEKSKDASEIVQSILSEAVDVAIADGTFFNKKEVIDKVQKCIREDLPNAITSMNQDVSNKRLTEIDHINGAVANLAKLYKIPTPYNDCIIHIIHALEGLYNEGHHHHHH,soluble
11,MSLVYMAINAVAGTIREFSPKDIESVYRIAQTSLTEYYTQALILDLHREWPESFMVYTVAGSVVGFIVGSKYSRTEARILLFAVDERFRRMGVGSALMDAFLSLCREQNMLSVRLEVRTDNDEAIRFYKKYGFVITAMLPNYYSDSSNAYTMWRIVEGHHHHHH,not soluble
12,MTDNLNLGAIDLGTDDEFIARHIGPRAADTQAMLQRLGYDSLDTLIGNVIPDSIKGSSVLDLPAGMGEAEALASLKAIAARNRALRSFIGQGYYNCHTPAPILRNLLENPAWYTAYTPYQPEISQGRLEALLNFQTLVSDLSGLPIANASMLDEATAAAEAMTFCKRLSKNRTSQAFFASRHCHPQTLDVLRTRAEPLGIEVVVGDESTIEDFSAYFGALLQYPTCDGEIVDYRELVSRFHAVDALVAVAADLLALTLLTPPGEFGADVAIGSAQRFGVPLGFGGPHAAYFATRDAFKRDMPGRLVGVSIDRHGKPAYRLAMQTREQHIRREKATSNICTAQVLLANIASMFAVYHGPQGLLRIARRTHRLTAILAAGLERLGVAVEQKHFFDTLSLATGARTAAIHAKARAAGINLREIDAGRLGLSLDETVRQTDVETLWGLLAEEGQALPDFAALAASSGDRLPVELLRQSAILSHPIFNRHHSETELMRYLRKLADKDLALDRTMIPLGSCTMKLNAASEMIPVTWAEFGNLHPFAPAEQSEGYRQLTDELEAMLCSATGYDAVSLQPNAGSQGEYAGLLAIRAYHQSRGDSQRDICLIPSSAHGTNPATASMVGMRVVVVACDARGNVDVEDLRNKASEHKERLAALMITYPSTHGVFEEAIREICAIVHDCGGQVYIDGANMNAMVGLCAPGKFGGDVSHLNLHKTFCIPHGGGGPGVGPIGVRAHLAPFLPGHARGERKEGAVSAAPYGSASILPITWMYIRMMGGEGLKRASEMAILNANYIAHRLEEHYPVLYAGGNGLVAHECILDLRPLKDSSGISVDDVAKRLMDFGFHAPTMSFPVAGTLMIEPTESESKAELDRFCDAMIRIREEIRAVERGELDKEDNPLKNAPHTAAELLGEWNHAYSREQAAYPLASLVEAKYWPPVGRVDNVYGDRNLTCSCPPIEAYS,not soluble
